Measurements reported in paper PMC6568178 (Theranostics, 2019).

T1: FOXM1 full-length (UniProt Q08050-2 1-748)
T1 sequence: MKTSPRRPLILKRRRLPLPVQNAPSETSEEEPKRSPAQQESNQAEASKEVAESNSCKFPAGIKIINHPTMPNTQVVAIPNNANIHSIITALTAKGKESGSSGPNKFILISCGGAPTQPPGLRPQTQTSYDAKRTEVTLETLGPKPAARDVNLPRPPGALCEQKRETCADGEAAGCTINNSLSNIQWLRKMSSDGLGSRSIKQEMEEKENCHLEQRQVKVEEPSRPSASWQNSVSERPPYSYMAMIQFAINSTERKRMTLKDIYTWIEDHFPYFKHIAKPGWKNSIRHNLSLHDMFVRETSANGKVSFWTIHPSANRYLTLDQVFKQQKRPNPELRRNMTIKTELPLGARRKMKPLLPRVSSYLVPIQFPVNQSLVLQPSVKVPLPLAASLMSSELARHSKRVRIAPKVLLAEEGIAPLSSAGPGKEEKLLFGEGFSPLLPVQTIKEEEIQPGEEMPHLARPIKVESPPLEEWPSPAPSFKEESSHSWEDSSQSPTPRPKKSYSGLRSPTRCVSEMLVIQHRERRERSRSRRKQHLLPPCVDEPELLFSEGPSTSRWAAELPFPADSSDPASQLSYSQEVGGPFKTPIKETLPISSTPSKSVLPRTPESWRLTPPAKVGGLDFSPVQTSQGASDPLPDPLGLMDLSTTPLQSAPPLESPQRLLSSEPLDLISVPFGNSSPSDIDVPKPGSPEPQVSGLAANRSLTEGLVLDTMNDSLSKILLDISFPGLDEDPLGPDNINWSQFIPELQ

T2: FOXM1 full-length;M1-138 (6xHis-FOXM1(1-138)-R9) (human?;human?, UniProt Q08050-2;Q08050-2 1-748;1-138, |)
T2 sequence 1: T1 sequence
T2 sequence 2: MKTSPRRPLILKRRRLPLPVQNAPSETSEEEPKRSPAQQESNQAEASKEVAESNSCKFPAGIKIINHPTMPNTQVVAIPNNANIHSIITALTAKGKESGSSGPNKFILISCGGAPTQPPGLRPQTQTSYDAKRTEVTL

T3: FOXM1 (endogenous) (human (endogenous in MDA-MB-231 and …, UniProt Q08050 1-763))
T3 sequence: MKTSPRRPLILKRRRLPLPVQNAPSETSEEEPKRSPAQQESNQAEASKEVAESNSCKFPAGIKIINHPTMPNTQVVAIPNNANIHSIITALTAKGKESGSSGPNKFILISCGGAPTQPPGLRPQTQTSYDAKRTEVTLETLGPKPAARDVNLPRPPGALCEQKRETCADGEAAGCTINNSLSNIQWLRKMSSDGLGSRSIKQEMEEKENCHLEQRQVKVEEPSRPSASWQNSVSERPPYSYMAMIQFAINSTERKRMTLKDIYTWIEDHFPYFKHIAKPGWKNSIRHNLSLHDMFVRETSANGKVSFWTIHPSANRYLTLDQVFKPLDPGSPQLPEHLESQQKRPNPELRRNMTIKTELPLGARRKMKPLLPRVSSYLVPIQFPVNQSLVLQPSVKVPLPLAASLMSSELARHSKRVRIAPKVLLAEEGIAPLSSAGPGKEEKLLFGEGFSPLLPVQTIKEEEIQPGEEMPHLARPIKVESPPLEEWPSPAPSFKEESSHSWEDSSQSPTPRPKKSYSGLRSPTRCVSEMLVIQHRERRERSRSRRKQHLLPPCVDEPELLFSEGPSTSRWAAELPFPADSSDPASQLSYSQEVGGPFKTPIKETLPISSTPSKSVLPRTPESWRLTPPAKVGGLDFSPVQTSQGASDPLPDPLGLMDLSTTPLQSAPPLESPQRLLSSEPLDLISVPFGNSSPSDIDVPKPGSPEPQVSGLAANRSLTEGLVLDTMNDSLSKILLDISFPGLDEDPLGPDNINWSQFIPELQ

B1: FAM-labeled FOXM1 dsDNA probe (Hot) (dsDNA)
DNA 1: TTTGTTTATTTGTTTGTTTATTTG
DNA 2: CAAATAAACAAACAAATAAACAAA
B2: M1-138 (recombinant FOXM1 N-terminal domain (1-138aa) fused with a nine arginine cell-penetrating peptide) (domain or fragment)
chain: MKTSPRRPLILKRRRLPLPVQNAPSETSEEEPKRSPAQQESNQAEASKEVAESNSCKFPAGIKIINHPTMPNTQVVAIPNNANIHSIITALTAKGKESGSSGPNKFILISCGGAPTQPPGLRPQTQTSYDAKRTEVTLRRRRRRRRR

What was measured:
[1] = molecular target: T1, FOXM1 full-length; test: EMSA
[2] = molecular target: T2, FOXM1 full-length;M1-138 …; test: EMSA
[3] = molecular target: T3, FOXM1 (endogenous); test: cell-based or functional assay

Binder | binding result [1] | binding result [2] | IC50 of cell viability (CCK-8), A549 cells, 12 h treatment [3] [µM] | IC50 of cell viability (CCK-8), Hela cells, 12 h treatment [3] [µM] | IC50 of cell viability (CCK-8), HepG2 cells, 12 h treatment [3] [µM] | IC50 of cell viability (CCK-8), MCF-7 cells, 12 h treatment [3] [µM] | IC50 of cell viability (CCK-8), MDA-MB-231 cells, 12 h treatment [3] [µM]
B1 | binds | binds |  |  |  |  | 
B2 |  |  | 5.3 | 8.9 | 13.8 | 17.9 | 7.8
